# B1: N15 unmodified (ssDNA)
# DNA: CACTCACGTCAGTGACATGCAGGTCCTCTCGCCCCCAGTGACTTGCGTGGTCAGAAATTTCGCACCAC
# Target: PvLDH (lactate dehydrogenase) (Plasmodium vivax, UniProt Q4PRK9 1-316)
# Experiment: flow cytometry (Ni-NTA beads)
# Conditions: protein: recombinant; tags: His6; chain copies: 4
binder,measurement,value
B1,Kd,~208 nM

# From article PMC12436594, “Probing three-dimensional cyclooctatetraene for nucleobase modification in aptamer selection”
